Assay results taken from paper doi:10.1101/2020.06.18.158576 (bioRxiv, 2020).

T1: SasA (unlabeled) (Synechococcus elongatus, UniProt Q06904 1-387)
T1 sequence: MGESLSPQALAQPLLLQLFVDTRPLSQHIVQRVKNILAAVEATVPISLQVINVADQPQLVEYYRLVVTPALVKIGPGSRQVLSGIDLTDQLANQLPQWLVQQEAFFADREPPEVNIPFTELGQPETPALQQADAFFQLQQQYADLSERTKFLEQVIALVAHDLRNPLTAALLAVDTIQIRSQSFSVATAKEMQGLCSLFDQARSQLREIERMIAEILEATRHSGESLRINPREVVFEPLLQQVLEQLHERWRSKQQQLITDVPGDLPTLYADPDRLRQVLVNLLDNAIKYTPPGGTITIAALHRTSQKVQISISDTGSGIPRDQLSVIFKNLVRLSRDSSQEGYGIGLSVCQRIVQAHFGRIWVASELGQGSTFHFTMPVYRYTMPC

T2: KaiC (Synechococcus elongatus, UniProt Q79PF4 1-519)
T2 sequence: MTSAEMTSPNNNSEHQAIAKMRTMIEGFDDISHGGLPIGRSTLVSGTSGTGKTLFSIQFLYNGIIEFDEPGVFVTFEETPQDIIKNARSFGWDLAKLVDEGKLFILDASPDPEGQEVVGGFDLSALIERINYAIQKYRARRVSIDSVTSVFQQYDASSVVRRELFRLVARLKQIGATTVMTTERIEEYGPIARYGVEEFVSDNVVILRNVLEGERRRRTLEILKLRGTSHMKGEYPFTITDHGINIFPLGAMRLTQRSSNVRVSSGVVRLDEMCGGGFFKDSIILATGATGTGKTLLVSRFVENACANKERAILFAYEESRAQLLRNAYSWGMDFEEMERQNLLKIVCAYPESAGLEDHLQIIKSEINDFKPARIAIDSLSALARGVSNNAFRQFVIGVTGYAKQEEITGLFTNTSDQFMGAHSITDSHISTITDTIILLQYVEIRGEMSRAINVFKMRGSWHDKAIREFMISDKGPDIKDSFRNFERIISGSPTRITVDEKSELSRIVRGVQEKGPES


Assays:
[1] = target: T1, SasA (unlabeled); assay: fluorescence polarisation
[2] = target: T2, KaiC; assay: fluorescence polarisation

binding result [1]	binding result [2]	Binder
binds	–	RpaA R121Q mutant (natural protein) MKPRILVIDDDSAILELVAVNLEMSGYDVRKAEDGIKGQALAVQLVPDLIMLDLMLPRVDGFTVCQRLRRDERTAEIPVLMLTALGQTQDKVEGFNAGADDYLTKPFEVEEMLARVRALLQRTDRIPHAARHSEILSYGPLTLIPERFEAIWFNRTVKLTHLEFELLHCLLQRHGQTVAPSEILKEVWGYDPDDDIETIRVHIRHLRTKLEPDPRHPRYIKTVYGAGYCLELPAETELHQHADQFPSAS
binds	–	RpaA, fluorescently labeled probe (natural protein, fluorescently labeled using sortase-mediated ligation) MKPRILVIDDDSAILELVAVNLEMSGYDVRKAEDGIKGQALAVQLVPDLIMLDLMLPRVDGFTVCQRLRRDERTAEIPVLMLTALGQTQDKVEGFNAGADDYLTKPFEVEEMLARVRALLRRTDRIPHAARHSEILSYGPLTLIPERFEAIWFNRTVKLTHLEFELLHCLLQRHGQTVAPSEILKEVWGYDPDDDIETIRVHIRHLRTKLEPDPRHPRYIKTVYGAGYCLELPAETELHQHADQFPSAS
–	binds	KaiA, fluorescently labeled probe (natural protein, fluorescently labeled using sortase-mediated ligation) MLSQIAICIWVESTAILQDCQRALSADRYQLQVCESGEMLLEYAQTHRDQIDCLILVAANPSFRAVVQQLCFEGVVVPAIVVGDRDSEDPDEPAKEQLYHSAELHLGIHQLEQLPYQVDAALAEFLRLAPVETMADHIMLMGANHDPELSSQQRDLAQRLQERLGYLGVYYKRDPDRFLRNLPAYESQKLHQAMQTSYREIVLSYFSPNSNLNQSIDNFVNMAFFADVPVTKVVEIHMELMDEFAKKLRVEGRSEDILLDYRLTLIDVIAHLCEMYRRSIPRET
–	binds	SasA, fluorescently labeled probe (enzyme, fluorescently labeled using sortase-mediated ligation) MGESLSPQALAQPLLLQLFVDTRPLSQHIVQRVKNILAAVEATVPISLQVINVADQPQLVEYYRLVVTPALVKIGPGSRQVLSGIDLTDQLANQLPQWLVQQEAFFADREPPEVNIPFTELGQPETPALQQADAFFQLQQQYADLSERTKFLEQVIALVAHDLRNPLTAALLAVDTIQIRSQSFSVATAKEMQGLCSLFDQARSQLREIERMIAEILEATRHSGESLRINPREVVFEPLLQQVLEQLHERWRSKQQQLITDVPGDLPTLYADPDRLRQVLVNLLDNAIKYTPPGGTITIAALHRTSQKVQISISDTGSGIPRDQLSVIFKNLVRLSRDSSQEGYGIGLSVCQRIVQAHFGRIWVASELGQGSTFHFTMPVYRYTMPC
